The source of these data is patent US20020147129A1.

For this assay, the target named is embryonic chicken AT4 receptor (chicken). In words: competition for [125I]Ang IV binding, E13 chicken chorioallantoic membranes.
Sequence of embryonic chicken AT4 receptor (chicken) (F1NNE7 entry or part of it): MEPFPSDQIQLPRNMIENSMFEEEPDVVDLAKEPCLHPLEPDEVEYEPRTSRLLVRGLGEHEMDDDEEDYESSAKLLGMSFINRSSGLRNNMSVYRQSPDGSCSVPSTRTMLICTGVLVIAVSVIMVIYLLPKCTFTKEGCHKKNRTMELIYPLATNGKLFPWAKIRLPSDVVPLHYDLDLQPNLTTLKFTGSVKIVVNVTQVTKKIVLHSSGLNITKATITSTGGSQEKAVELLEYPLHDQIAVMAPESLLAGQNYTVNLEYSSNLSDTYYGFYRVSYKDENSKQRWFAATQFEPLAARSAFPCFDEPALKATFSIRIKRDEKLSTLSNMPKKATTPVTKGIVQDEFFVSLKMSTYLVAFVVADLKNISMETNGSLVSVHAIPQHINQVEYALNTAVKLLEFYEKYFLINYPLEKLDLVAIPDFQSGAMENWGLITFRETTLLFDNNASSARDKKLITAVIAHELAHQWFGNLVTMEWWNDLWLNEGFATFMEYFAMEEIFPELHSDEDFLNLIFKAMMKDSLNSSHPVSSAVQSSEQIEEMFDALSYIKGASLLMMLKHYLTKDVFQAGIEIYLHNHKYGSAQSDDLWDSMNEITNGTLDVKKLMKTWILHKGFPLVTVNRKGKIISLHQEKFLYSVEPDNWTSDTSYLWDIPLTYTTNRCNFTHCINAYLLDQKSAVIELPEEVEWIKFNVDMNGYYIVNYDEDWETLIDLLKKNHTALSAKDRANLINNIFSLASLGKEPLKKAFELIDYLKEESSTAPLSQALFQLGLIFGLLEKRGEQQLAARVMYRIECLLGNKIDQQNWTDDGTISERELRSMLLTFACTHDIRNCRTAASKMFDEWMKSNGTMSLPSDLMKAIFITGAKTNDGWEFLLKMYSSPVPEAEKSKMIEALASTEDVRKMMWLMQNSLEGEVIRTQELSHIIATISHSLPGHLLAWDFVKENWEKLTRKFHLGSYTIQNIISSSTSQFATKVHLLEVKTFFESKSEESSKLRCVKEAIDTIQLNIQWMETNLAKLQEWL

In the case of Nle^1-Y-I-amide (peptide), the 50% inhibitory concentration (IC50) (commonly the point on the concentration scale where inhibition reaches its midpoint) worked out at 2.2 µM.
